# Measurements: IntAct's records for PubMed 16739988
# B1: Gem-associated protein 5 (Homo sapiens), Q8TEQ6 (parent)
# chain: MGQEPRTLPPSPNWYCARCSDAVPGGLFGFAARTSVFLVRVGPGAGESPGTPPFRVIGELVGHTERVSGFTFSHHPGQYNLCATSSDDGTVKIWDVETKTVVTEHALHQHTISTLHWSPRVKDLIVSGDEKGVVFCYWFNRNDSQHLFIEPRTIFCLTCSPHHEDLVAIGYKDGIVVIIDISKKGEVIHRLRGHDDEIHSIAWCPLPGEDCLSINQEETSEEAEITNGNAVAQAPVTKGCYLATGSKDQTIRIWSCSRGRGVMILKLPFLKRRGGGIDPTVKERLWLTLHWPSNQPTQLVSSCFGGELLQWDLTQSWRRKYTLFSASSEGQNHSRIVFNLCPLQTEDDKQLLLSTSMDRDVKCWDIATLECSWTLPSLGGFAYSLAFSSVDIGSLAIGVGDGMIRVWNTLSIKNNYDVKNFWQGVKSKVTALCWHPTKEGCLAFGTDDGKVGLYDTYSNKPPQISSTYHKKTVYTLAWGPPVPPMSLGGEGDRPSLALYSCGGEGIVLQHNPWKLSGEAFDINKLIRDTNSIKYKLPVHTEISWKADGKIMALGNEDGSIEIFQIPNLKLICTIQQHHKLVNTISWHHEHGSQPELSYLMASGSNNAVIYVHNLKTVIESSPESPVTITEPYRTLSGHTAKITSVAWSPHHDGRLVSASYDGTAQVWDALREEPLCNFRGHRGRLLCVAWSPLDPDCIYSGADDFCVHKWLTSMQDHSRPPQGKKSIELEKKRLSQPKAKPKKKKKPTLRTPVKLESIDGNEEESMKENSGPVENGVSDQEGEEQAREPELPCGLAPAVSREPVICTPVSSGFEKSKVTINNKVILLKKEPPKEKPETLIKKRKARSLLPLSTSLDHRSKEELHQDCLVLATAKHSRELNEDVSADVEERFHLGLFTDRATLYRMIDIEGKGHLENGHPELFHQLMLWKGDLKGVLQTAAERGELTDNLVAMAPAAGYHVWLWAVEAFAKQLCFQDQYVKAASHLLSIHKVYEAVELLKSNHFYREAIAIAKARLRPEDPVLKDLYLSWGTVLERDGHYAVAAKCYLGATCAYDAAKVLAKKGDAASLRTAAELAAIVGEDELSASLALRCAQELLLANNWVGAQEALQLHESLQGQRLVFCLLELLSRHLEEKQLSEGKSSSSYHTWNTGTEGPFVERVTAVWKSIFSLDTPEQYQEAFQKLQNIKYPSATNNTPAKQLLLHICHDLTLAVLSQQMASWDEAVQALLRAVVRSYDSGSFTIMQEVYSAFLPDGCDHLRDKLGDHQSPATPAFKSLEAFFLYGRLYEFWWSLSRPCPNSSVWVRAGHRTLSVEPSQQLDTASTEETDPETSQPEPNRPSELDLRLTEEGERMLSTFKELFSEKHASLQNSQRTVAEVQETLAEMIRQHQKSQLCKSTANGPDKNEPEVEAEQPLCSSQSQCKEEKNEPLSLPELTKRLTEANQRMAKFPESIKAWPFPDVLECCLVLLLIRSHFPGCLAQEMQQQAQELLQKYGNTKTYRRHCQTFCM
# Variants of: B1
# Details: with if4e_human EIF4E
row,effect of a mutation on the interaction,Variant
1,decreasing interaction,Y992A
2,decreasing interaction,L270A;K271A
3,decreasing interaction,L997A;L998A
4,decreasing interaction,L265A
